According to patent US20230073007A1 (OPTOLANE TECHNOLOGIES, published 2023):
No end group written: not given here.

T1: CRP (UniProt P02741 19-224)
T1 construct: also called antigen CRP
T1 sequence (looked up): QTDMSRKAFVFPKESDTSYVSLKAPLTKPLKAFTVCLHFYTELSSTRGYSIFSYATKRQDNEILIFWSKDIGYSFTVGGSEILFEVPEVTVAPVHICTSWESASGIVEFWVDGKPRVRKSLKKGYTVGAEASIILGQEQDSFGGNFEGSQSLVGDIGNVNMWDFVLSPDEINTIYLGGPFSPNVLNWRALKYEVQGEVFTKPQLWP

B1: switching binder of SEQ ID NO. 4 (L2) (peptide)
peptide: VYYCFQGSHVPFTK
modifications: also: fluorescence label in fluorescence assays, dye and place not given here
notes: also called PEPTIDE 4
B2: switching binder of SEQ ID NO. 1 (H1) (peptide)
peptide: SYWIHWVKQRPGQGLEWIGE
modifications: also: fluorescence label in fluorescence assays, dye and place not given here
notes: also called PEPTIDE 1
B3: switching binder of SEQ ID NO. 3 (L1) (peptide)
peptide: TYLEWYPQKPGQSPKLLIYK
modifications: also: fluorescence label in fluorescence assays, dye and place not given here
notes: also called PEPTIDE 3
B4: switching binder of SEQ ID NO. 2 (H2) (peptide)
peptide: VYYCAREPTGTGIYFDVWGK
modifications: also: fluorescence label in fluorescence assays, dye and place not given here
notes: also called PEPTIDE 2

Tests used:
[1] = molecular target: T2, anti-HRP antibody; experiment: fluorescence of labelled peptide (10 µM) on anti-HRP antibody fixed on a solid support, before (A) and after (B) HRP 10 µg/ml; C = fluorescence in the solution
T2 construct: also called anti-HRP antibody 10
Description: (§1) 1 to 4 were each treated at a concentration of 10 μM (100 μl/well) for 2 hours. At this time, after measuring the fluorescence of the bottom, the antigen HRP as an analyte for an IgG antibody of rabbit was treated at a concentration of 10 μg/ml for 1 hour. […] 1 to 4 were each treated at a concentration of 20 μM (100 μl/well) for 2 hours. At this time, after measuring the fluorescence of the bottom, the antigen HCG as an analyte for an IgG antibody of a mouse was treated at a concentration of 100 μg/ml for 2 hours.

[2] = molecular target: anti-CRP antibody; experiment: fluorescence of labelled peptide (20 µM) on anti-CRP antibody fixed on a solid support, before (A) and after (B) antigen 10 µg/ml (CRP by paragraph 170; paragraph 172 writes HRP); C = fluorescence in the solution
Description: 1 to 4 were each treated at a concentration of 20 μM (100 μl/well) for 2 hours. At this time, after measuring the fluorescence of the bottom (A), the antigen HRP as an analyte for an IgG antibody of rabbit was treated at a concentration of 10 μg/ml for 1 hour. […] 1 to 4 were each treated at a concentration of 20 μM (100 μl/well) for 2 hours. At this time, after measuring the fluorescence of the bottom (A), the antigen HBsAg as an analyte for an IgG antibody of a goat was treated at a concentration of 10 μg/ml for 1 hour.

[3] = molecular target: T2, anti-HRP antibody; experiment: SPR, anti-HRP antibody immobilized on gold chip, peptide at 20 µM
Description: (§2) Carbodiimide/N-Hydroxysuccinimide (EDC/NHS, 0.4 M/0.1 M) was mixed in a 1:1 ratio and treated for 10 minutes to activate functional groups. […] Thereafter, it was used after blocking with an ethanolamine concentration of 1 M for 10 minutes. All of the switching binders 100 were treated by incubation for 30 minutes using two concentrations of 10 and 20 μM, respectively. The SPR signal can be measured as an average value by repeating the routine of measuring the SPR signal for 3 minutes while the solution is stopped after flowing 1% Tween-20 washing solution for 1 minute three times.

[4] = molecular target: T2, anti-HRP antibody; experiment: SPR, anti-HRP antibody immobilized on gold chip, peptide at 10 µM
Description: as §2

[5] = molecular target: anti-hCG antibody; experiment: fluorescence of labelled peptide (20 µM) on anti-hCG antibody fixed on a solid support, before (A) and after (B) hCG 100 µg/ml; C = fluorescence in the solution
Description: as §1

[6] = molecular target: T3, antibody 10 immobilized by the support 30 (FIG. 7A; antibody not identified); experiment: fluorescence of labeled peptide vs peptide concentration on immobilized antibody (FIG. 7A)
T3 construct: also called the antibody 10

[7] = molecular target: protein A (UniProt P38507 37-477); experiment: fluorescence of labelled peptide (20 µM) on protein coated at 100 µg/mL on a solid support
[8] = molecular target: T1, CRP; experiment: as above
[9] = molecular target: anti-HBsAg antibody; experiment: fluorescence of labelled peptide (20 µM) on anti-HBsAg antibody fixed on a solid support, before (A) and after (B) HBsAg 10 µg/ml; C = fluorescence in the solution
[10] = molecular target: B1; experiment: FRET between the labelled peptides H1 and L2, H1 peptide concentration varied (linear axis, 0-10 µM)
[11] = molecular target: B4; experiment: FRET between the labelled peptides L1 and H2, L1 peptide concentration varied (linear axis, 0-10 µM)
[12] = molecular target: T3, antibody 10 immobilized by the support …; experiment: fluorescence of labelled peptide on an antibody fixed on a support, peptide concentration varied (log axis, 0.1-100 µM)
[13] = molecular target: B3; experiment: FRET between the two peptides (FIG. 5E)

B1
percent printed over the arrow from bar A to bar B (residual bound peptide after antigen; agrees with B as percent of A) [1]: 25.5%
percent printed over the arrow from bar A to bar B (residual bound peptide after antigen; agrees with B as percent of A) [2]: 55.1%
SPR signal [3]: 418 RU
SPR signal [4]: 125 RU
percent printed over the arrow from bar A to bar B (residual bound peptide after antigen; agrees with B as percent of A) [5]: 9.3%
Kd [6]: 6.68 µM
binding result [7]: no binding (tested: 20 µM)
binding result [8]: no binding (tested: 20 µM)
percent printed over the arrow from bar A to bar B (residual bound peptide after antigen; agrees with B as percent of A) [9]: 55.1%

B2
binding result [10]: binds
percent printed over the arrow from bar A to bar B (residual bound peptide after antigen; agrees with B as percent of A) [1]: 12.3%
percent printed over the arrow from bar A to bar B (residual bound peptide after antigen; agrees with B as percent of A) [2]: 73.2%
SPR signal [3]: 121 RU
SPR signal [4]: 34.4 RU
percent printed over the arrow from bar A to bar B (residual bound peptide after antigen; agrees with B as percent of A) [5]: 34.4%
Kd [6]: 1.42 µM
binding result [7]: no binding (tested: 20 µM)
binding result [8]: no binding (tested: 20 µM)
percent printed over the arrow from bar A to bar B (residual bound peptide after antigen; agrees with B as percent of A) [9]: 73.2%

B3
binding result [11]: binds
percent printed over the arrow from bar A to bar B (residual bound peptide after antigen; agrees with B as percent of A) [1]: 12.8%
EC50 (read off the curve) [12]: ~6 µM
percent printed over the arrow from bar A to bar B (residual bound peptide after antigen; agrees with B as percent of A) [2]: 51.4%
SPR signal [3]: 40.4 RU
SPR signal [4]: 25.3 RU
Kd [6]: 6.62 µM
binding result [7]: no binding (tested: 20 µM)
binding result [8]: no binding (tested: 20 µM)
percent printed over the arrow from bar A to bar B (residual bound peptide after antigen; agrees with B as percent of A) [9]: 51.4%

B4
percent printed over the arrow from bar A to bar B (residual bound peptide after antigen; agrees with B as percent of A) [1]: 14.8%
binding result [13]: binds
percent printed over the arrow from bar A to bar B (residual bound peptide after antigen; agrees with B as percent of A) [2]: 60.5%
SPR signal [3]: 192 RU
SPR signal [4]: 51.5 RU
percent printed over the arrow from bar A to bar B (residual bound peptide after antigen; agrees with B as percent of A) [5]: 11.5%
Kd [6]: 19.4 µM
binding result [8]: no binding (tested: 20 µM)
percent printed over the arrow from bar A to bar B (residual bound peptide after antigen; agrees with B as percent of A) [9]: 60.5%
